According to patent US20240076361A1 (EISAI R AND D MANAGEMENT, published 2024):

Biological target: T1, non-phosphorylated Tau (Tau-441 (2N4R), rPeptide LLC) (human, UniProt P10636 1-758)
T1 construct: also called non-phosphorylated Tau protein (2N4R); recombinant Tau
Assay: sandwich ELISA: antigen captured by coated anti-Tau antibody BT2, detected with the peroxidase-labelled antibody at 80 ng/mL; antigen concentration varied
Procedure: Anti-Tau monoclonal antibody BT2 (Thermo Fisher Scientific) was adjusted with 50 mM Tris/HCl (pH 7.5) to a concentration of 1 microgram/mL, and then injected at 100 microliter/well in a Maxisorp cup (NUNC). The cup was placed in a humid box and coated overnight at 4 degrees Celsius. After the antibody solution was removed by aspiration, a blocking solution (5% skimmed milk (FUJIFILM Wako Pure Chemical), 50 mM Tris/HCl (pH 7.5), 150 mM NaCl, 0.1% sodium azide) was injected at 200 microliter/well, followed by blocking at room temperature for 2 hours or at 4 degrees Celsius for one day or more (hereinafter referred to as “BT2 cup”). The test recombinant antibodies: 5F6-4D1, 7G5-4B8, 2H8-1G7, 2H8-1G7(KC14S) and comparator antibodies: PT3 and anti-pT217 Tau polyclonal antibody (Genscript poly; Cat. No. A00896, Genscript) were labeled with peroxidase using a Peroxidase Labeling Kit-NH2 (DOJINDO MOLECULAR TECHNOLOGIES) in accordance with the instruction manual attached to the kit (hereinafter referred to as “peroxidase-labeled pT217 Tau antibodies”). […]

T1 sequence (P10636 other isoform, or with tags, fused parts or gaps limits assumed): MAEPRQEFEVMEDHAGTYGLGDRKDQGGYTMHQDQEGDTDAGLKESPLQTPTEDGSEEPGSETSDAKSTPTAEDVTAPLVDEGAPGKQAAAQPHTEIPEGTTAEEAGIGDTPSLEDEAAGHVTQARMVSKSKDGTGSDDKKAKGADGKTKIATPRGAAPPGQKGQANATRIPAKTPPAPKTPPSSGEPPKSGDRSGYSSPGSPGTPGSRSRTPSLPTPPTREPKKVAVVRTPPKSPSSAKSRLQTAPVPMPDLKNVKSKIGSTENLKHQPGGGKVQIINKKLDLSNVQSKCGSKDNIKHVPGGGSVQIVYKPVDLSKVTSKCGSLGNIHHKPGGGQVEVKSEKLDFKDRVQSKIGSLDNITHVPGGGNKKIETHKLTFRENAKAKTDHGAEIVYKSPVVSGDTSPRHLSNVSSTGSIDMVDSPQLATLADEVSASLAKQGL

binding result: no binding (tested: 80000 pg/mL)
B1: 2H8-1G7(KC14S) (antibody, mouse IgG2b, kappa, V domains shown)
VH: EVQLVESGGGLVKPGGSLKLSCAASGFTVSDYGMHWVRQAPEKGLEWIAYISSGSSTIYYVDTVKGRFTISRDNAKNTLFLQMTSLRSEDTAMYYCARRLSIWGTGTTVTVSS
VL: QIVLTQSPAIMSASPGEKVTMTCSASSSVSSMYWYHQKPGSSPRLLIYDTSNLASGVPVRFSGSGSGTSYSLTISRMEAEDAATYYCLQWSSYPLTFGAGTKLELKR
notes: Recombinant mouse IgG2b kappa
